Data as given in patent publication US20140072613A1 (published 2014).

Assays:
Experiment in all cases: cell-based or functional assay
Fyn(h) = Fyn(h) (human, UniProt P06241 1-537)
GCK(h) = biological target: T1, GCK(h) (human, UniProt Q12851 1-820, limits assumed)
T1 sequence (looked up): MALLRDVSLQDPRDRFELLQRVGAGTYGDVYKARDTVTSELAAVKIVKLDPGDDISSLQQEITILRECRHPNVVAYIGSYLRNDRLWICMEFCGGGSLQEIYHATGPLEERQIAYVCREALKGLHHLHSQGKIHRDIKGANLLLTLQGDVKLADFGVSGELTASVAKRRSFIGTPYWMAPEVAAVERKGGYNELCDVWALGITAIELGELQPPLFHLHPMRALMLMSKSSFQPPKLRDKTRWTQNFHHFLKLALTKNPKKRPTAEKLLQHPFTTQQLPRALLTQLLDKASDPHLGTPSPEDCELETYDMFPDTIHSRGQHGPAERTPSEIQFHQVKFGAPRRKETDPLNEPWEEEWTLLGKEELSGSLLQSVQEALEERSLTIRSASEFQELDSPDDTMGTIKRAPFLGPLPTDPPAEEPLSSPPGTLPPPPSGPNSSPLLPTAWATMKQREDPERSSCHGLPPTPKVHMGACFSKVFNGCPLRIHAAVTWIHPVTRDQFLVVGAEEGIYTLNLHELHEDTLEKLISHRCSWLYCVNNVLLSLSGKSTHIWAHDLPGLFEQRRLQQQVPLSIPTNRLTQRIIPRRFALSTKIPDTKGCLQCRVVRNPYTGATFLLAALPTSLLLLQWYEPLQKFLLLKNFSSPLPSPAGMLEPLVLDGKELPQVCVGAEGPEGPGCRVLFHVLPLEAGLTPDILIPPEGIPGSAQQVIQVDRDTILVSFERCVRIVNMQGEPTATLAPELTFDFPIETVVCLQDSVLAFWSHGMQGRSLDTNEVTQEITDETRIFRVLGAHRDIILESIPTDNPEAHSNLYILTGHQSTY

Met(Y1248H)(h) = Met(Y1248H)(h) (human, UniProt P08581-2 974-1408, limits assumed)
MST2(h) = biological target: T2, MST2(h) (human, UniProt Q13188 1-491)
T2 sequence (looked up): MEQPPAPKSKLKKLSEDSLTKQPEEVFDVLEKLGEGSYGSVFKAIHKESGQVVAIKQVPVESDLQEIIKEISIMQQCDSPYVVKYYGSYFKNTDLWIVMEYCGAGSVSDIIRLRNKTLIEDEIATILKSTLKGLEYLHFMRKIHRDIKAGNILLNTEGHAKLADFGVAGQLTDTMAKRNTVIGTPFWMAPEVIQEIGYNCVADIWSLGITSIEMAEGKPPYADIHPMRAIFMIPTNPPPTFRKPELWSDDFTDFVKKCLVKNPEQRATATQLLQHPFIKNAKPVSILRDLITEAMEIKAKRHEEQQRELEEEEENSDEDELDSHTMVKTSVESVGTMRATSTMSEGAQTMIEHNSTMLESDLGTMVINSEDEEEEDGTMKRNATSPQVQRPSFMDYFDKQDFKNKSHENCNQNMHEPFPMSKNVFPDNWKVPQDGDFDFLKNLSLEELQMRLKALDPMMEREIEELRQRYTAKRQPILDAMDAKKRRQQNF

Rse(h) = biological target: T3, Rse(h) (human, UniProt Q06418 451-890, limits assumed)
T3 sequence (looked up): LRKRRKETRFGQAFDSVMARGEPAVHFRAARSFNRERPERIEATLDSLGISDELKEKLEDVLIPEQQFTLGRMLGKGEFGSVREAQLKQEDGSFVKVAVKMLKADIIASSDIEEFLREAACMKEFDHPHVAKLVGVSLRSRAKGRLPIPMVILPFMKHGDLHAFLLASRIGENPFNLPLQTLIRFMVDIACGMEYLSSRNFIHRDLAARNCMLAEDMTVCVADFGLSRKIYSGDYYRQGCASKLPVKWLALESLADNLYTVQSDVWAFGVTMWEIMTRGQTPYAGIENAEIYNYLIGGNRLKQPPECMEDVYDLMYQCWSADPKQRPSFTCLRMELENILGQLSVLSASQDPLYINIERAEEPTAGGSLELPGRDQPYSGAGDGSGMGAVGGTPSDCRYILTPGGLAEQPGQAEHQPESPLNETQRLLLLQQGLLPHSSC

Tie2(Y897S)(h) = Tie2(Y897S)(h) (human, UniProt Q02763 771-1124, limits assumed)
ZAP-70(h) = biological target: T4, ZAP-70(h) (human, UniProt P43403 1-619)
T4 sequence (looked up): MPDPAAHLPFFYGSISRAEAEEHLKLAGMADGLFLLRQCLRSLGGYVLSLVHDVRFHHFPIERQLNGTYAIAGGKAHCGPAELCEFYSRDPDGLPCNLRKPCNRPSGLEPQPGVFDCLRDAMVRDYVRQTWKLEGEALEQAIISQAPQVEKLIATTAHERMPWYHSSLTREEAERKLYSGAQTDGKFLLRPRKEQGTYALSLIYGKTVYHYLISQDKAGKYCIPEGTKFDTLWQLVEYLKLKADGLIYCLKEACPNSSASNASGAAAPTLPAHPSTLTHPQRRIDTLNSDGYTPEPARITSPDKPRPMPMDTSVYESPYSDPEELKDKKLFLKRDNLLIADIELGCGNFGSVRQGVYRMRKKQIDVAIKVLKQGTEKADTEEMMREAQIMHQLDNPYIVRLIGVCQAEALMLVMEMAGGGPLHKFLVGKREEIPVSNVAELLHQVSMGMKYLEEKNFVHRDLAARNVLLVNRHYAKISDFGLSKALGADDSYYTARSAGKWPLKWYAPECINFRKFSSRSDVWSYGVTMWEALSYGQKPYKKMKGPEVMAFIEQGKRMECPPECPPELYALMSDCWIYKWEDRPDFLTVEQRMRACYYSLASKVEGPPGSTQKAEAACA

ZIPK(h) = ZIPK(h) (human, UniProt O43293 1-454, limits assumed)
CaMKI(h) = CaMKI(h) (human, UniProt Q14012 1-370)
CaMKIIβ(h) = CaMKIIβ(h) (human, UniProt Q13554 1-666)
CHK2(R145W)(h) = CHK2(R145W)(h) (human, UniProt O96017 5-543, limits assumed)
Chain of CHK2(R145W)(h) (O96017 5-543 R145W limits assumed): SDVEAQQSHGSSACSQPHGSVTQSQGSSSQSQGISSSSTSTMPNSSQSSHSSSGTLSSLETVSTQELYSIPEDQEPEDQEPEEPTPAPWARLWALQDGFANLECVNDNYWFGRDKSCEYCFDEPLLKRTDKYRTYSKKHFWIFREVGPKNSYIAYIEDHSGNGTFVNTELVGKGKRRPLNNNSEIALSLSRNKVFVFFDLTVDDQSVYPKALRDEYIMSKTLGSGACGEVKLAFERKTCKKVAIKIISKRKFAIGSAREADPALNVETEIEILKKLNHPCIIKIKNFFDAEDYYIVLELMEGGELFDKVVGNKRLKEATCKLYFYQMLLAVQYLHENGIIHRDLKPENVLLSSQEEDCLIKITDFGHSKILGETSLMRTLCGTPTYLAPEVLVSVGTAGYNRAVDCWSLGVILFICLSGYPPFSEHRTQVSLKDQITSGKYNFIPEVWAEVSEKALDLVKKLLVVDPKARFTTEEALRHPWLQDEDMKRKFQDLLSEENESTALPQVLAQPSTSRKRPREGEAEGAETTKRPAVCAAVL

Chain of Fyn(h) (P06241 whole entry): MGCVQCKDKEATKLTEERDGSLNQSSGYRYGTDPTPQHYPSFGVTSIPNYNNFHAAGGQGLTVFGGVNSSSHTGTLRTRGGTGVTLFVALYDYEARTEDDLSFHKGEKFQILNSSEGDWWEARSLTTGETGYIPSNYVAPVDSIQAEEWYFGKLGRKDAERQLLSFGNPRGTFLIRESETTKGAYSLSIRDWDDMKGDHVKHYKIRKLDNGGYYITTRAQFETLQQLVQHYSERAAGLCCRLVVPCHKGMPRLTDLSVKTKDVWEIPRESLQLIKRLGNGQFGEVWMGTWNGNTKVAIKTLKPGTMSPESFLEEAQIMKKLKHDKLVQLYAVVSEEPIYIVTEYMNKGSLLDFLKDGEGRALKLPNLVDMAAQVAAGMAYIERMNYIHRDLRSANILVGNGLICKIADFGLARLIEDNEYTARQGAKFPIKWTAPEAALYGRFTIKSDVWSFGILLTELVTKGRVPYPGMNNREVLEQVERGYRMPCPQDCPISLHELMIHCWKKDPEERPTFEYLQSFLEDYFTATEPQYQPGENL
Chain of Tie2(Y897S)(h) (Q02763 771-1124 Y897S limits assumed): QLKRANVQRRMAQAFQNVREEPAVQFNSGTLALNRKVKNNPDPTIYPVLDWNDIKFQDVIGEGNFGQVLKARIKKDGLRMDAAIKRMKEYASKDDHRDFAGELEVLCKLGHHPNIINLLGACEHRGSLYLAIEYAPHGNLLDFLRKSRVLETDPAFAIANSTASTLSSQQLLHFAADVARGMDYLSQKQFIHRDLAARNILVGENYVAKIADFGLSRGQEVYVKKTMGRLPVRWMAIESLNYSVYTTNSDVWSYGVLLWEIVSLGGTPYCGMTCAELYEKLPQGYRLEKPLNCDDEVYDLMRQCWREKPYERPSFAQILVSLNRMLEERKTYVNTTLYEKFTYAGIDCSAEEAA
Chain of ZIPK(h) (O43293 whole entry): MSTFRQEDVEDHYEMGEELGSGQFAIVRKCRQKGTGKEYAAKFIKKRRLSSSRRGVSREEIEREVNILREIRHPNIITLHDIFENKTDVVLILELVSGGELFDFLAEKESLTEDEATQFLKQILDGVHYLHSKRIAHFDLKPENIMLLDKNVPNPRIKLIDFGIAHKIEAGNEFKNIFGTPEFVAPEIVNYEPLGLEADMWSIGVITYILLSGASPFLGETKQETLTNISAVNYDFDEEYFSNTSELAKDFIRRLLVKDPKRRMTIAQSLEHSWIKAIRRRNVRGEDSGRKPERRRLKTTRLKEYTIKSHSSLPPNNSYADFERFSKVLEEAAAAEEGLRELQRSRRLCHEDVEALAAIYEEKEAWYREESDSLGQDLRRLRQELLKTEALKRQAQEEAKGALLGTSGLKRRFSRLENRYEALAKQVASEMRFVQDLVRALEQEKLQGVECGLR
Chain of CaMKIIβ(h) (Q13554 whole entry): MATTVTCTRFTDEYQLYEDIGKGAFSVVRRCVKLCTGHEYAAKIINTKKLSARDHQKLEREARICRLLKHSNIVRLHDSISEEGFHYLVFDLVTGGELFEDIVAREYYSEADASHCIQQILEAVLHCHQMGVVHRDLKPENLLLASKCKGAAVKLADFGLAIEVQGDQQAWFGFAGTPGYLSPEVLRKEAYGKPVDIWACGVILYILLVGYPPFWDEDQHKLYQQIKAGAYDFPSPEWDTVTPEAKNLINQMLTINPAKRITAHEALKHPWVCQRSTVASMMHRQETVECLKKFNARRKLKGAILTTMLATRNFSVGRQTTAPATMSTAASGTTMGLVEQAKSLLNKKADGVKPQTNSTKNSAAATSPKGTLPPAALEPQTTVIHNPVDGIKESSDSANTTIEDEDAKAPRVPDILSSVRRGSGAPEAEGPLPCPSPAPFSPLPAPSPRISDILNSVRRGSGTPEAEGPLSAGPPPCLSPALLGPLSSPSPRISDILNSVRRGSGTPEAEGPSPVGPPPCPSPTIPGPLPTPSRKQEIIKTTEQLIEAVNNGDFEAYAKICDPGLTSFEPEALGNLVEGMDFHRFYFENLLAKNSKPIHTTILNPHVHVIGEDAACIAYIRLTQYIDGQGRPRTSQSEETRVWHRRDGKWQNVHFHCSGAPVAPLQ
Chain of CaMKI(h) (Q14012 whole entry): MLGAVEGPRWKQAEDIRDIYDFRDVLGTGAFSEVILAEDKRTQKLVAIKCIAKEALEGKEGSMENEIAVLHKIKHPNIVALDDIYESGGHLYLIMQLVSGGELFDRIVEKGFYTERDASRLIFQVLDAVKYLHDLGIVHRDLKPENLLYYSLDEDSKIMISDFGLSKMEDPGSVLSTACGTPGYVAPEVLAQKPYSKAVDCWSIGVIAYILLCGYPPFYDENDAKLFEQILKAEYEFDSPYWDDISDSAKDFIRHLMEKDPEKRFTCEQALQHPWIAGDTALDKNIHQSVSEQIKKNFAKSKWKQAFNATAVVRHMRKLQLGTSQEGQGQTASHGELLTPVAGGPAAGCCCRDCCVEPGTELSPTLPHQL

Row | Binder | % activity, 100 µM (Fyn(h)) [%] | % activity, 100 µM (GCK(h)) [%] | % activity, 100 µM (Met(Y1248H)(h)) [%] | % activity, 100 µM (MST2(h)) [%] | % activity, 100 µM (Rse(h)) [%] | % activity, 100 µM (Tie2(Y897S)(h)) [%] | % activity, 100 µM (ZAP-70(h)) [%] | % activity, 100 µM (ZIPK(h)) [%] | % activity, 100 µM (CaMKI(h)) [%] | % activity, 100 µM (CaMKIIβ(h)) [%] | % activity, 100 µM (CHK2(R145W)(h)) [%]
1 | FAKLAARLYRKALARQLGVAA [MMI-0300] | 74 | 70 | 117 | 19 | 88 | 83 | 75 | 28 | 1 | 2 | 33
2 | KAFAKLAARLYRKALARQLGVAA [MMI-0400] | 54 | 66 | 63 | 11 | 89 | 87 | 33 | 13 | 0 | 11 | 31
